Data on 5 molecules can be found in publication PMC8503651, “The Stress-Active Cell Division Protein ZapE Alters FtsZ Filament Architecture to Facilitate Division in Escherichia coli” (Frontiers in Microbiology, 2021).

B1: FtsZ (native) (natural protein, Escherichia coli, UniProt P0A9A6 1-383, looked up)
chain: MFEPMELTNDAVIKVIGVGGGGGNAVEHMVRERIEGVEFFAVNTDAQALRKTAVGQTIQIGSGITKGLGAGANPEVGRNAADEDRDALRAALEGADMVFIAAGMGGGTGTGAAPVVAEVAKDLGILTVAVVTKPFNFEGKKRMAFAEQGITELSKHVDSLITIPNDKLLKVLGRGISLLDAFGAANDVLKGAVQGIAELITRPGLMNVDFADVRTVMSEMGYAMMGSGVASGEDRAEEAAEMAISSPLLEDIDLSGARGVLVNITAGFDLRLDEFETVGNTIRAFASDNATVVIGTSLDPDMNDELRVTVVATGIGMDKRPEITLVTNKQVQQPVMDRYQQHGMAPLTQEQKPVAKVVNDNAPQTAKEPDYLDIPAFLRKQAD
notes: FtsZ, tubulin-like GTPase and cell division protein of Escherichia coli; native (no tag named); Assembles into polymers with GTP; also called Native FtsZ; wild type FtsZ; source: E. coli BL21 (λde3), purified as described (Camberg et al., 2009)
B2: ZapE (N-terminal six histidine fusion protein) (enzyme, Escherichia coli, UniProt P64612 1-375, looked up)
chain: MQSVTPTSQYLKALNEGSHQPDDVQKEAVSRLEIIYQELINSTPPAPRTSGLMARVGKLWGKREDTKHTPVRGLYMWGGVGRGKTWLMDLFYQSLPGERKQRLHFHRFMLRVHEELTALQGQTDPLEIIADRFKAETDVLCFDEFFVSDITDAMLLGGLMKALFARGITLVATSNIPPDELYRNGLQRARFLPAIDAIKQHCDVMNVDAGVDYRLRTLTQAHLWLSPLHDETRAQMDKLWLALAGGKRENSPTLEINHRPLATMGVENQTLAVSFTTLCVDARSQHDYIALSRLFHTVMLFDVPVMTRLMESEARRFIALVDEFYERHVKLVVSAEVPLYEIYQGDRLKFEFQRCLSRLQEMQSEEYLKREHLAG
B3: ZapE (H6-ZapE) (Escherichia coli K-12) (protein)
chain: B2 chain
notes: full-length, N-terminal 6xHis tag kept, pET-28a, expressed in E. coli BL21 (λde3); calculated mass 44,583 Da; predominantly monomer
B4: ZapE(K84A) (N-terminal histidine fusion protein) (enzyme, Escherichia coli, UniProt P64612 1-375, looked up)
chain: B2 chain with K84A
notes: ZapE of Escherichia coli with the Walker A substitution K84A (defective for ATP hydrolysis); pET-28a, site-directed mutagenesis; also called H6-ZapE(K84A); His6-zapE(K84A); source: E. coli BL21 (λde3), purified (cobalt column, sephadex G25); not shown: His6, N-terminal, kept

Numbering of substitutions follows the chain as printed. Names may count otherwise.

The target of series [1] is ZapE (N-terminal six histidine fusion protein) (Escherichia coli) (UniProt P64612). Briefly: co-sedimentation; phospholipid recruitment: Gfp-FtsZ (3 μM) with GTP (4 mM) added to ZapE (1 μM) pre-assembled with SUVs (500 μg ml^-1) and ATP (4 mM); 50 mM HEPES pH 7.5, 150 mM KCl, 20 mM MgCl2; 21,000 × g for 15 min; percent in the pellet by densitometry; 6% of Gfp-FtsZ in the pellet without ….

Series [2] concerns the molecule itself. In words: co-sedimentation; FtsZ (6 μM) with GTP (2 mM) or without GTP, with or without ZapE or ZapE(K84A) (8 μM), with or without ATP or ATPγS (4 mM); 50 mM HEPES pH 7.5, 150 mM KCl, 20 mM MgCl2, 23°C, 10 min; 250,000 × g for 20 min; supernatants and pellets by SDS-PAGE and Coomassie.
Series [3] has as its target B1. Briefly: cell-based or functional assay.
The target of series [4] is Histidine-tagged Gfp-FtsZ (Escherichia coli). In words: filter retention (ultrafiltration, 100 kDa filter); ZapE or ZapE(K84A) (5 μM) with Gfp-FtsZ (10 μM) and ATP (4 mM), without GTP; 50 mM MES pH 6.5, 100 mM KCl, 10 mM MgCl2, 23°C, 10 min; filtrate and retentate by SDS-PAGE and densitometry; ZapE alone retained 33.4%, ZapE(K84A) alone 50.3%.
Substrate in series [5]: Nc1ncnc2c1ncn2[C@@H]1O[C@H](COP(=O)(O)OP(=O)(O)OP(=O)(O)O)[C@@H](O)[C@H]1O
Briefly: phosphate release (Biomol Green), Michaelis-Menten fit. The class given is biochemical, Escherichia coli. Particulars: 12 μM ZapE, ATP 0 to 5 mM, 50 mM HEPES pH 7.5, 150 mM KCl, 20 mM MgCl2, 23°C.

Series [6] concerns the target B1. Briefly: co-sedimentation; FtsZ (6 μM) with GTP (2 mM) or without GTP, with or without ZapE or ZapE(K84A) (8 μM), with or without ATP or ATPγS (4 mM); 50 mM HEPES pH 7.5, 150 mM KCl, 20 mM MgCl2, 23°C, 10 min; 250,000 × g for 20 min; supernatants and pellets by SDS-PAGE and Coomassie. As to conditions: both partners purified.

On to Histidine-tagged Gfp-FtsZ, for which the percent of total Gfp-FtsZ in the phospholipid pellet in series [1] worked out at 21.6%.
In the case of B1, the binding result in series [2] is “binds”.
As to B2, the “maximum 90° light scatter of FtsZ (8 μM) after addition of GTP (1.5 mM), ZapE 0 to 8 μM with ATP (4 mM)” value with FtsZ (native) [3] was greater than 2 fold. The percent of total ZapE retained on the filter in series [4] was 63.4%.
Take B3: in series [5], the Km was found to be 1700 ± 360 µM.
B4: in the series with FtsZ (native) [6], the binding result is reported as “binds”. Moreover, the percent of ZapE(K84A) retained on the filter in series [4] stood at 80.2%.
